Measured values from patent US20180171001A1 (ROCKEFELLER UNIVERSITY, published 2018).

Key:
Experiment in all cases: cell-based or functional assay
Tro11 = Tro11 (Human immunodeficiency virus 1)
6535_3 = 6535_3 (Human immunodeficiency virus 1)
SC4226618 = SC4226618 (Human immunodeficiency virus 1)

B1: chimeric IgG: 8ANC195 HC paired with mature LC with CDRL2 reverted to germline (antibody, V domains shown)
VH: QIHLVQSGTEVKKPGSSVTVSCKAYGVNTFGLYAVNWVRQAPGQSLEYIGQIWRWKSSASHHFRGRVLISAVDLTGSSPPISSLEIKNLTSDDTAVYFCTTTSTYDKWSGLHHDGVMAFSSWGQGTLISVSA
VL: DIQMTQSPSTLSASIGDTVRISCRASQSITGNWVAWYQQRPGKAPRLLIYKASALLGGVPSRFSGSAAGTDFTLTIGNLQAEDFGTFYCQQYDTYPGTFGQGTKVEVK
Tro11
  IC50 (fold change over 8ANC195 IgG), pseudovirus neutralization [panel B]: 62 fold
6535_3
  IC50 (fold change over 8ANC195 IgG), pseudovirus neutralization [panel B]: 31 fold
SC4226618
  IC50 (fold change over 8ANC195 IgG), pseudovirus neutralization [panel B]: 99 fold
